Assay results taken from publication PMC7010817.

Target: PPARα (UniProt P23204)
Assay: Flag-JMJD3 co-IP, PPARα immunoblot
Conditions: reference: wild type, FGF21-treated; sites T1044

For “JMJD3 (KDM6B) (from UniProt Q5NCY0) T1044A, FGF21-treated”, the “binding against the reference” value was “weaker”.
